Reference: US20120282285A1 (RIGSHOSPITALET, published 2012)

What was measured:
[1] = molecular target: T1, Ficolin-3 (human, UniProt O75636 24-299); assay: 10-30% sucrose gradient of serum; fractions read by ELISA and western blot
T1 construct: Serum Ficolin-3 in the co-precipitations, ELISA and gradient. rFicolin-3 on acetylated BSA in the C4 deposition assays; also called rFicolin-3; recombinant human Ficolin-3
Experimental: (§1) Normal human serum was subjected to sucrose gradient separation. 0.75 ml serum was loaded onto 40 ml centrifugation columns consisting of 10-30% sucrose gradients buffered in 10 mM Tris, 145 mM NaCl, 3 mM CaCl₂ and human serum albumin at 30 μg/ml. The loaded columns were centrifuged at 150.000×g in vacuum for 24 hours at 4° C. in a L70 Beckmann ultracentrifuge with a SW28 rotor head. 1.5 ml fractions were collected from the bottom and analyzed by specific ELISA or immunoblotting for the following antigens: MAP-1, MASP-1, MASP-2, MASP-3, sMAP, MBL, Ficolin-2 and Ficolin-3. The peaks of the serum IgM (19S) and IgG (7S) were also assessed indicating the molecular […]. Additionally the fractions were analyzed for the capacity to activate exogenously applied C4. […] The C4 deposition was subsequently measured with polyclonal antibodies to C4c (Q 0369, Dako, Glostrup, Denmark).
(§2) In order to investigate the distribution of MAP-1 in relation to associated molecules and to examine how much appears non-associated we subjected normal human serum to density fractionation using a 10-30% sucrose gradient and ultracentrifugation. Subsequently the collected fractions were analyzed for MAP-1, MASP-3, MBL, Ficolin-2 and -3 by ELISA (FIG. 31A) and MAP-1, MASP-1, -2 and -3, sMAP, MBL, Ficolin-2 and -3 by western blotting (FIG. 31B). […]

[2] = molecular target: T1, Ficolin-3; assay: 10-30% sucrose gradient of serum; fractions read by western blot
Experimental: as §1, §2

T1 sequence (O75636 24-299 limits assumed): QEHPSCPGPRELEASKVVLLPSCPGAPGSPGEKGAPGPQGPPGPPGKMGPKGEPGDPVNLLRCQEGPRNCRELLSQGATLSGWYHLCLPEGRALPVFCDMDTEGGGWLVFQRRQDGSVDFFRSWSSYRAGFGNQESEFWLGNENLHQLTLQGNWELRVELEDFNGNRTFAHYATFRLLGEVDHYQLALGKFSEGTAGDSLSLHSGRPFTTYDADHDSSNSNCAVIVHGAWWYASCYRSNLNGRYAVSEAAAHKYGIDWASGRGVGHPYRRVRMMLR

binding result [1]	binding result [2]	Binder
binds	–	MBL-Associated Serine Protease-3 (MASP-3) (enzyme, also called rMASP-3) HTVELNNMFGQIQSPGYPDSYPSDSEVTWNITVPDGFRIKLYFMHFNLESSYLCEYDYVKVETEDQVLATFCGRETTDTEQTPGQEVVLSPGSFMSITFRSDFSNEERFTGFDAHYMAVDVDECKEREDEELSCDHYCHNYIGGYYCSCRFGYILHTDNRTCRVECSDNLFTQRTGVITSPDFPNPYPKSSECLYTIELEEGFMVNLQFEDIFDIEDHPEVPCPYDYIKIKVGPKVLGPFCGEKAPEPISTQSHSVLILFHSDNSGENRGWRLSYRAAGNECPELQPPVHGKIEPSQAKYFFKDQVLVSCDTGYKVLKDNVEMDTFQIECLKDGTWSNKIPTCKIVDCRAPGELEHGLITFSTRNNLTTYKSEIKYSCQEPYYKMLNNNTGIYTCSAQGVWMNKVLGRSLPTCLPECGQPSRSLPSLVKRIIGGRNAEPGLFPWQALIVVEDTSRVPNDKWFGSGALLSASWILTAAHVLRSQRRDTTVIPVSKEHVTVYLGLHDVRDKSGAVNSSAARVVLHPDFNIQNYNHDIALVQLQEPVPLGPHVMPVCLPRLEPEGPAPHMLGLVAGWGISNPNVTVDEIISSGTRTLSDVLQYVKLPVVPHAECKTSYESRSGNYSVTENMFCAGYYEGGKDTCLGDSGGAFVIFDDLSQRWVVQGLVSWGGPEECGSKQVYGVYTKVSNYVDWVWEQMGLPQSVVEPQVER
–	binds	small MBL-associated protein (sMAP) (other, Serum protein in the sucrose gradient; also called MAp19; MBL-associated plasma protein of 19 kD) TPLGPKWPEPVFGRLASPGFPGEYANDQERRWTLTAPPGYRLRLYFTHFDLELSHLCEYDFVKLSSGAKVLATLCGQESTDTERAPGKDTFYSLGSSLDITFRSDYSNEKPFTGFEAFYAAEDIDECQVAPGEAPTCDHHCHNHLGGFYCSCRAGYVLHRNKRTCSEQSL
